Data as given in article PMC3770644 (PLoS ONE, 2013).

Key:
[1] = biological target: T1, ubiquitin (whether His-tagged or not is not told for the experiment) (UniProt P0CG48 1-76); experiment: NMR titration; unlabelled SH3 domain titrated into 0.25 mM 15N-ubiquitin; 1H-15N HSQC chemical shift perturbation; 25 °C; 50 mM NaPi, 1 mM DTT, pH 6.0; settings: both partners purified
T1 construct: ubiquitin, the 76-residue cut product (residues up to Gly76 are named); The methods list His-tagged and non His-tagged ubiquitin; It may carry the C-terminal His tag of m6; 15N- or 13C,15N-labelled in some NMR experiments; source: purchased from Spectra Isotopes or obtained as described in [12]; [18]

[2] = biological target: T1, ubiquitin (whether His-tagged or not is …); experiment: other fluorescence titration + ITC; 25 °C; ubiquitin stock titrated into the SH3 domain; ITC in 20 mM cacodylate, pH 6.0, about 50 µM SH3 in the cell and about 800 µM ubiquitin; intrinsic tryptophan fluorescence (excitation 298 nm), apparent affinities; model of a single set of identical sites; settings: both partners purified

Binder | binding result [1] | Kd [2] [µM]
CIN85 F322Y SH3-C (domain or fragment, UniProt Q96B97 270-328, looked up, CIN85 third SH3 domain (SH3-C) with F322Y; limits as the WT construct CIN85-SH3C(270-328)His6; Site-directed mutagenesis (QuikChange) of the WT construct m4; also called CIN85 SH3-C F322Y mutant; CIN85 F322Y SH3-C mutant; source: E. coli BL21/DE3, purified like the WT CIN85 SH3-C) DYCKVIFPYEAQNDDELTIKEGDIVTLINKDCIDVGWWEGELNGRRGVFPDNYVKLLPP | binds | –
CD2AP F324Y SH3-C (domain or fragment, CD2AP third SH3 domain (SH3-C) with F324Y; Site-directed mutagenesis (QuikChange) of the WT construct m3; also called SH3-C F324Y mutant; F324Y CD2AP SH3-C; source: E. coli BL21/DE3, purified like the WT CD2AP SH3-C) AKEYCRTLFPYTGTNEDELTFREGEIIHLISKETGEAGWWKGELNGKEGVFPDNYAVQIS | – | 24 ± 3
CD2AP SH3-C T283A mutant (domain or fragment, CD2AP third SH3 domain (SH3-C) with T283A (RT loop); Mutant of m3; source: purchased from Topgene and expressed as the WT domains; purified) AKEYCRTLFPYTGANEDELTFREGEIIHLISKETGEAGWWKGELNGKEGVFPDNFAVQIS | binds | –
